± gives the uncertainty stated by the source.

The record followed here is the Human Domainome abundance scans (Beltran et al. 2025).

The chains are these.
B1: Protein maelstrom homolog, residues 3 to 71; numbered along this chain, Q96JY0 (parent)
chain: NRKASRNAYYFFVQEKIPELRRRGLPVARVADAIPYCSSDWALLREEEKEKYAEMAREWRAAQGKDPGP

The variants in this data set derive from B1. The data set is described as follows: abundance fitness (aPCA) (normalised: wild type 0, dead -1); higher = more abundant; growth selection in yeast, the domain comes from the species named. The note with it: Homo sapiens.
On to NRKASRNAYYFFVQEKIPELRRRGLPVARVADAIYYCSSDWALLREEEKEKYAEMAREWRAAQGKDPGP [P35Y], for which the abundance fitness was -1.07 ± 0.45. In the case of NRKASRNAYYFFVQEKIPELRRRGLPVARVADAIQYCSSDWALLREEEKEKYAEMAREWRAAQGKDPGP [P35Q], the abundance fitness is -0.451 ± 0.098. With NRKASRNAYYFFVQEKIPELRRRGLPVARVADAIEYCSSDWALLREEEKEKYAEMAREWRAAQGKDPGP [P35E], the abundance fitness is -0.289 ± 0.1. As for NRKASRNAYYFFVQEKIPELRRRGLPVARVADAIDYCSSDWALLREEEKEKYAEMAREWRAAQGKDPGP [P35D], the abundance fitness was -0.181 ± 0.16. NRKASRNAYYFFVQEKIPELRRRGLPVARVADAITYCSSDWALLREEEKEKYAEMAREWRAAQGKDPGP [P35T]: the abundance fitness is -0.554 ± 0.11. Regarding NRKASRNAYYFFVQEKIPELRRRGLPVARVADAIIYCSSDWALLREEEKEKYAEMAREWRAAQGKDPGP [P35I], the abundance fitness was -0.524 ± 0.33. To NRKASRNAYYFFVQEKIPELRRRGLPVARVADAIWYCSSDWALLREEEKEKYAEMAREWRAAQGKDPGP [P35W] belongs -0.756 ± 0.098. Under NRKASRNAYYFFVQEKIPELRRRGLPVARVADAIFYCSSDWALLREEEKEKYAEMAREWRAAQGKDPGP [P35F] stands -0.862 ± 0.48. For the variant NRKASRNAYYFFVQEKIPELRRRGLPVARVADAIHYCSSDWALLREEEKEKYAEMAREWRAAQGKDPGP [P35H], the abundance fitness came to 0.058 ± 0.28. As to NRKASRNAYYFFVQEKIPELRRRGLPVARVADAIAYCSSDWALLREEEKEKYAEMAREWRAAQGKDPGP [P35A], the abundance fitness was -0.435 ± 0.075. Turning to NRKASRNAYYFFVQEKIPELRRRGLPVARVADAINYCSSDWALLREEEKEKYAEMAREWRAAQGKDPGP [P35N], the abundance fitness was -0.266 ± 0.2. To NRKASRNAYYFFVQEKIPELRRRGLPVARVADAIKYCSSDWALLREEEKEKYAEMAREWRAAQGKDPGP [P35K] belongs 0.049 ± 0.079; to NRKASRNAYYFFVQEKIPELRRRGLPVARVADAIGYCSSDWALLREEEKEKYAEMAREWRAAQGKDPGP [P35G], -0.224 ± 0.055; to NRKASRNAYYFFVQEKIPELRRRGLPVARVADAIVYCSSDWALLREEEKEKYAEMAREWRAAQGKDPGP [P35V], -0.78 ± 0.12. Under NRKASRNAYYFFVQEKIPELRRRGLPVARVADAISYCSSDWALLREEEKEKYAEMAREWRAAQGKDPGP [P35S] stands -0.628 ± 0.1; under NRKASRNAYYFFVQEKIPELRRRGLPVARVADAILYCSSDWALLREEEKEKYAEMAREWRAAQGKDPGP [P35L], -0.713 ± 0.1; under NRKASRNAYYFFVQEKIPELRRRGLPVARVADAIMYCSSDWALLREEEKEKYAEMAREWRAAQGKDPGP [P35M], -0.18 ± 0.082.

In the case of NRKASRNAYYFFVQEKIPELRRRGLPVARVADAIPYFSSDWALLREEEKEKYAEMAREWRAAQGKDPGP [C37F], the abundance fitness is -0.55 ± 0.13. As for NRKASRNAYYFFVQEKIPELRRRGLPVARVADAIPYQSSDWALLREEEKEKYAEMAREWRAAQGKDPGP [C37Q], the abundance fitness is -0.636 ± 0.16. Regarding NRKASRNAYYFFVQEKIPELRRRGLPVARVADAIPYYSSDWALLREEEKEKYAEMAREWRAAQGKDPGP [C37Y], the abundance fitness is -0.741 ± 0.13.

On to NRKASRNAYYFFVQEKIPELRRRGLPVARVADAIPYRSSDWALLREEEKEKYAEMAREWRAAQGKDPGP [C37R], for which the abundance fitness was -0.731 ± 0.072. Under NRKASRNAYYFFVQEKIPELRRRGLPVARVADAIPYSSSDWALLREEEKEKYAEMAREWRAAQGKDPGP [C37S] stands -0.561 ± 0.07; under NRKASRNAYYFFVQEKIPELRRRGLPVARVADAIPYISSDWALLREEEKEKYAEMAREWRAAQGKDPGP [C37I], -0.229 ± 0.15; under NRKASRNAYYFFVQEKIPELRRRGLPVARVADAIPYGSSDWALLREEEKEKYAEMAREWRAAQGKDPGP [C37G], -0.557 ± 0.043. Consider NRKASRNAYYFFVQEKIPELRRRGLPVARVADAIPYVSSDWALLREEEKEKYAEMAREWRAAQGKDPGP [C37V], for which the abundance fitness is -0.137 ± 0.057. Under NRKASRNAYYFFVQEKIPELRRRGLPVARVADAIPYASSDWALLREEEKEKYAEMAREWRAAQGKDPGP [C37A] stands -0.19 ± 0.075; under NRKASRNAYYFFVQEKIPELRRRGLPVARVADAIPYLSSDWALLREEEKEKYAEMAREWRAAQGKDPGP [C37L], -0.244 ± 0.054; under NRKASRNAYYFFVQEKIPELRRRGLPVARVADAIPYESSDWALLREEEKEKYAEMAREWRAAQGKDPGP [C37E], -0.636 ± 0.13. Under NRKASRNAYYFFVQEKIPELRRRGLPVARVADAIPYMSSDWALLREEEKEKYAEMAREWRAAQGKDPGP [C37M] stands -0.291 ± 0.073. To NRKASRNAYYFFVQEKIPELRRRGLPVARVADAIPYTSSDWALLREEEKEKYAEMAREWRAAQGKDPGP [C37T] belongs -0.434 ± 0.11; to NRKASRNAYYFFVQEKIPELRRRGLPVARVADAIPYKSSDWALLREEEKEKYAEMAREWRAAQGKDPGP [C37K], -0.719 ± 0.13; to NRKASRNAYYFFVQEKIPELRRRGLPVARVADADPYCSSDWALLREEEKEKYAEMAREWRAAQGKDPGP [I34D], 0.113 ± 0.2. With NRKASRNAYYFFVQEKIPELRRRGLPVARVADAYPYCSSDWALLREEEKEKYAEMAREWRAAQGKDPGP [I34Y], the abundance fitness was -0.064 ± 0.26. To NRKASRNAYYFFVQEKIPELRRRGLPVARVADAEPYCSSDWALLREEEKEKYAEMAREWRAAQGKDPGP [I34E] belongs -0.113 ± 0.094; to NRKASRNAYYFFVQEKIPELRRRGLPVARVADAGPYCSSDWALLREEEKEKYAEMAREWRAAQGKDPGP [I34G], -0.198 ± 0.04.

With NRKASRNAYYFFVQEKIPELRRRGLPVARVADALPYCSSDWALLREEEKEKYAEMAREWRAAQGKDPGP [I34L], the abundance fitness was -0.17 ± 0.065. As for NRKASRNAYYFFVQEKIPELRRRGLPVARVADAMPYCSSDWALLREEEKEKYAEMAREWRAAQGKDPGP [I34M], the abundance fitness was 0.069 ± 0.12. To NRKASRNAYYFFVQEKIPELRRRGLPVARVADAFPYCSSDWALLREEEKEKYAEMAREWRAAQGKDPGP [I34F] belongs 0.091 ± 0.13; to NRKASRNAYYFFVQEKIPELRRRGLPVARVADAQPYCSSDWALLREEEKEKYAEMAREWRAAQGKDPGP [I34Q], -0.25 ± 0.092.
